Here are results for one substance from article PMC9159934.

A word on the stoichiometry N: it is a count of units in the complex or per binding partner.

The assay addresses BsaXI specificity subunit, WT: TRD1-CR1-TRD2-CR2 (Bacillus stearothermophilus 25B (Geobacillus sp. 25B)). Put plainly: co-purification by chromatography + SDS-PAGE band densitometry; RM and S expressed separately as intein-CBD fusions, combined and purified together over chitin, DEAE, heparin, Source 15S, Source 15Q and gel filtration (Superdex 75); RM:S ratio estimated from molecular mass and band intensity on SDS-PAGE (Bio Rad gel imaging software).

Regarding “BsaXI restriction-modification subunit (RM fusion) (enzyme)”, the stoichiometry N is 2 RM per S.
